Measured values published in US20240117018A1.

Tests used:
Test in all cases: cell-based or functional assay
[1] = molecular target: HIV-1 Env of pseudovirus 1054_07_TC4_1499 (HIV-1)
[2] = molecular target: HIV-1 Env of pseudovirus 1394C9G1(Rev-) (HIV-1)
[3] = molecular target: HIV-1 Env of pseudovirus 191084 B7-19 (HIV-1)
[4] = molecular target: HIV-1 Env of pseudovirus 246F C1G (HIV-1)
[5] = molecular target: HIV-1 Env of pseudovirus 3103.v3.c10 (HIV-1)
[6] = molecular target: HIV-1 Env of pseudovirus 3301.v1.c24 (HIV-1)
[7] = molecular target: HIV-1 Env of pseudovirus 3365.v2.c2 (HIV-1)
[8] = molecular target: HIV-1 Env of pseudovirus 620345.c01 (HIV-1)
[9] = molecular target: HIV-1 Env of pseudovirus 6480.v4.c25 (HIV-1)
[10] = molecular target: HIV-1 Env of pseudovirus 6535.3 (HIV-1)
[11] = molecular target: HIV-1 Env of pseudovirus 928-28 (HIV-1)
[12] = molecular target: HIV-1 Env of pseudovirus C2101.c01 (HIV-1)
[13] = molecular target: HIV-1 Env of pseudovirus C4118.c09 (HIV-1)
[14] = molecular target: HIV-1 Env of pseudovirus CAAN5342.A2 (HIV-1)
[15] = molecular target: HIV-1 Env of pseudovirus CAP210.2.00.E8 (HIV-1)
[16] = molecular target: HIV-1 Env of pseudovirus CNE19 (HIV-1)
[17] = molecular target: HIV-1 Env of pseudovirus CNE21 (HIV-1)
[18] = molecular target: HIV-1 Env of pseudovirus CNE30 (HIV-1)
[19] = molecular target: HIV-1 Env of pseudovirus Ce0682_E4 (HIV-1)
[20] = molecular target: HIV-1 Env of pseudovirus Ce1172_H1 (HIV-1)
[21] = molecular target: HIV-1 Env of pseudovirus Ce1176_A3 (HIV-1)
[22] = molecular target: HIV-1 Env of pseudovirus Ce703010054_2A2 (HIV-1)
[23] = molecular target: HIV-1 Env of pseudovirus Du156.12 (HIV-1)
[24] = molecular target: HIV-1 Env of pseudovirus HIV-16055-2.3 (HIV-1)
[25] = molecular target: HIV-1 Env of pseudovirus HIV-16845-2.22 (HIV-1)
[26] = molecular target: HIV-1 Env of pseudovirus P1981_C5_3 (HIV-1)
[27] = molecular target: HIV-1 Env of pseudovirus PVO.4 (HIV-1)
[28] = molecular target: HIV-1 Env of pseudovirus Q23.17 (HIV-1)
[29] = molecular target: HIV-1 Env of pseudovirus Q769.d22 (HIV-1)
[30] = molecular target: HIV-1 Env of pseudovirus SC05_8C11_2344 (HIV-1)
[31] = molecular target: HIV-1 Env of pseudovirus SC422661.8 (HIV-1)
[32] = molecular target: HIV-1 Env of pseudovirus T250-4 (HIV-1)
[33] = molecular target: HIV-1 Env of pseudovirus T251-18 (HIV-1)
[34] = molecular target: HIV-1 Env of pseudovirus THRO4156.18 (HIV-1)
[35] = molecular target: HIV-1 Env of pseudovirus TRO.11 (HIV-1)
[36] = molecular target: HIV-1 Env of pseudovirus WITO4160.33 (HIV-1)
[37] = molecular target: HIV-1 Env of pseudovirus ZM247v1(Rev-) (HIV-1)

N49P7.1 (antibody)
IC50 [1]: 0.627 µg/mL | IC80 [1]: 2.98 µg/mL | MPI [1]: 100 | IC50 [2]: 4.37 µg/mL | IC80 [2]: 30.9 µg/mL | MPI [2]: 88 | IC50 [3]: 0.069 µg/mL | IC80 [3]: 0.2 µg/mL | MPI [3]: 100 | IC50 [4]: 0.049 µg/mL | IC80 [4]: 0.165 µg/mL | MPI [4]: 100 | IC50 (neutralisation, TZM.bl cells) [5]: 0.229 µg/mL | IC80 (neutralisation, TZM.bl cells) [5]: 0.772 µg/mL | MPI [5]: 100 | IC50 (neutralisation, TZM.bl cells) [6]: 0.041 µg/mL | IC80 (neutralisation, TZM.bl cells) [6]: 0.111 µg/mL | MPI [6]: 100 | IC50 [7]: 0.088 µg/mL | IC80 [7]: 0.289 µg/mL | MPI [7]: 100 | IC50 [8]: > 50 µg/mL | IC80 [8]: > 50 µg/mL | MPI [8]: 47 | IC50 (neutralisation, TZM.bl cells) [9]: 0.056 µg/mL | IC80 (neutralisation, TZM.bl cells) [9]: 0.192 µg/mL | MPI [9]: 100 | IC50 [10]: 0.224 µg/mL | IC80 [10]: 0.715 µg/mL | MPI [10]: 100 | IC50 [11]: 0.23 µg/mL | IC80 [11]: 0.775 µg/mL | MPI [11]: 100 | IC50 [12]: 0.076 µg/mL | IC80 [12]: 0.425 µg/mL | MPI [12]: 100 | IC50 [13]: 0.048 µg/mL | IC80 [13]: 0.216 µg/mL | MPI [13]: 100 | IC50 [14]: 0.55 µg/mL | IC80 [14]: 1.59 µg/mL | MPI [14]: 100 | IC50 [15]: 2.03 µg/mL | IC80 [15]: 7.3 µg/mL | MPI [15]: 99 | IC50 [16]: 0.027 µg/mL | IC80 [16]: 0.128 µg/mL | MPI [16]: 100 | IC50 [17]: 1.58 µg/mL | IC80 [17]: 12.2 µg/mL | MPI [17]: 96 | IC50 [18]: 0.307 µg/mL | IC80 [18]: 1.01 µg/mL | MPI [18]: 100 | IC50 [19]: 0.026 µg/mL | IC80 [19]: 0.099 µg/mL | MPI [19]: 100 | IC50 [20]: 17.1 µg/mL | IC80 [20]: > 50 µg/mL | MPI [20]: 78 | IC50 [21]: 0.279 µg/mL | IC80 [21]: 1.01 µg/mL | MPI [21]: 100 | IC50 [22]: 0.085 µg/mL | IC80 [22]: 0.364 µg/mL | MPI [22]: 100 | IC50 [23]: 0.045 µg/mL | IC80 [23]: 0.131 µg/mL | MPI [23]: 100 | IC50 [24]: 0.088 µg/mL | IC80 [24]: 0.318 µg/mL | MPI [24]: 100 | IC50 [25]: 1.07 µg/mL | IC80 [25]: 5.4 µg/mL | MPI [25]: 100 | IC50 (neutralisation, TZM.bl cells) [26]: 0.216 µg/mL | IC80 (neutralisation, TZM.bl cells) [26]: 0.494 µg/mL | MPI [26]: 100 | IC50 [27]: 0.124 µg/mL | IC80 [27]: 0.421 µg/mL | MPI [27]: 100 | IC50 [28]: 0.077 µg/mL | IC80 [28]: 0.208 µg/mL | MPI [28]: 100 | IC50 [29]: 0.044 µg/mL | IC80 [29]: 0.163 µg/mL | MPI [29]: 100 | IC50 [30]: 0.189 µg/mL | IC80 [30]: 0.688 µg/mL | MPI [30]: 100 | IC50 [31]: 0.125 µg/mL | IC80 [31]: 0.417 µg/mL | MPI [31]: 100 | IC50 [32]: 2.27 µg/mL | IC80 [32]: 24.7 µg/mL | MPI [32]: 89 | IC50 [33]: 0.229 µg/mL | IC80 [33]: 0.794 µg/mL | MPI [33]: 100 | IC50 [34]: 3.07 µg/mL | IC80 [34]: 12.6 µg/mL | MPI [34]: 98 | IC50 [35]: 0.055 µg/mL | IC80 [35]: 0.191 µg/mL | MPI [35]: 100 | IC50 [36]: 0.121 µg/mL | IC80 [36]: 0.326 µg/mL | MPI [36]: 100 | IC50 [37]: 0.038 µg/mL | IC80 [37]: 0.176 µg/mL | MPI [37]: 100

N49P7 (antibody)
IC50 [1]: 0.494 µg/mL | IC80 [1]: 2.31 µg/mL | MPI [1]: 100 | IC50 [2]: 3.84 µg/mL | IC80 [2]: 21.1 µg/mL | MPI [2]: 94 | IC50 [3]: 0.047 µg/mL | IC80 [3]: 0.142 µg/mL | MPI [3]: 100 | IC50 [4]: 0.094 µg/mL | IC80 [4]: 0.255 µg/mL | MPI [4]: 100 | IC50 (neutralisation, TZM.bl cells) [5]: 0.158 µg/mL | IC80 (neutralisation, TZM.bl cells) [5]: 0.509 µg/mL | MPI [5]: 100 | IC50 (neutralisation, TZM.bl cells) [6]: 0.025 µg/mL | IC80 (neutralisation, TZM.bl cells) [6]: 0.069 µg/mL | MPI [6]: 100 | IC50 [7]: 0.07 µg/mL | IC80 [7]: 0.186 µg/mL | MPI [7]: 100 | IC50 [8]: 23.2 µg/mL | IC80 [8]: 47.9 µg/mL | MPI [8]: 82 | IC50 (neutralisation, TZM.bl cells) [9]: 0.031 µg/mL | IC80 (neutralisation, TZM.bl cells) [9]: 0.113 µg/mL | MPI [9]: 100 | IC50 [10]: 0.186 µg/mL | IC80 [10]: 0.598 µg/mL | MPI [10]: 100 | IC50 [11]: 0.167 µg/mL | IC80 [11]: 0.579 µg/mL | MPI [11]: 100 | IC50 [12]: 0.06 µg/mL | IC80 [12]: 0.34 µg/mL | MPI [12]: 100 | IC50 [13]: 0.043 µg/mL | IC80 [13]: 0.147 µg/mL | MPI [13]: 100 | IC50 [14]: 0.409 µg/mL | IC80 [14]: 1.21 µg/mL | MPI [14]: 100 | IC50 [15]: 1.82 µg/mL | IC80 [15]: 6.49 µg/mL | MPI [15]: 100 | IC50 [16]: 0.009 µg/mL | IC80 [16]: 0.041 µg/mL | MPI [16]: 100 | IC50 [17]: 0.756 µg/mL | IC80 [17]: 6.02 µg/mL | MPI [17]: 97 | IC50 [18]: 0.18 µg/mL | IC80 [18]: 0.609 µg/mL | MPI [18]: 100 | IC50 [19]: 0.041 µg/mL | IC80 [19]: 0.131 µg/mL | MPI [19]: 100 | IC50 [20]: 8.5 µg/mL | IC80 [20]: 37.5 µg/mL | MPI [20]: 92 | IC50 [21]: 0.204 µg/mL | IC80 [21]: 0.589 µg/mL | MPI [21]: 100 | IC50 [22]: 0.132 µg/mL | IC80 [22]: 0.466 µg/mL | MPI [22]: 100 | IC50 [23]: 0.032 µg/mL | IC80 [23]: 0.086 µg/mL | MPI [23]: 100 | IC50 [24]: 0.057 µg/mL | IC80 [24]: 0.28 µg/mL | MPI [24]: 100 | IC50 [25]: 0.95 µg/mL | IC80 [25]: 3.94 µg/mL | MPI [25]: 100 | IC50 (neutralisation, TZM.bl cells) [26]: 0.113 µg/mL | IC80 (neutralisation, TZM.bl cells) [26]: 0.274 µg/mL | MPI [26]: 100 | IC50 [27]: 0.107 µg/mL | IC80 [27]: 0.365 µg/mL | MPI [27]: 100 | IC50 [28]: 0.052 µg/mL | IC80 [28]: 0.21 µg/mL | MPI [28]: 100 | IC50 [29]: 0.025 µg/mL | IC80 [29]: 0.111 µg/mL | MPI [29]: 100 | IC50 [30]: 0.164 µg/mL | IC80 [30]: 0.403 µg/mL | MPI [30]: 100 | IC50 [31]: 0.114 µg/mL | IC80 [31]: 0.32 µg/mL | MPI [31]: 100 | IC50 [32]: 2.07 µg/mL | IC80 [32]: 21.4 µg/mL | MPI [32]: 91 | IC50 [33]: 0.178 µg/mL | IC80 [33]: 0.62 µg/mL | MPI [33]: 100 | IC50 [34]: 2.34 µg/mL | IC80 [34]: 12.4 µg/mL | MPI [34]: 99 | IC50 [35]: 0.044 µg/mL | IC80 [35]: 0.16 µg/mL | MPI [35]: 100 | IC50 [36]: 0.084 µg/mL | IC80 [36]: 0.248 µg/mL | MPI [36]: 100 | IC50 [37]: 0.062 µg/mL | IC80 [37]: 0.214 µg/mL | MPI [37]: 100
